Where two headings read alike, the source gives them in different places.

For data set [1], the target named is Ddn (Mycobacterium tuberculosis, UniProt P9WP15). The data set is described as follows: F420H2 oxidation, absorbance at […] nm.
In data set [2] the test system is COC1=C(OC)C(=O)C(C)=CC1=O. As to the kind of experiment: purified protein. The conditions noted are these: pH 8.0.
Data set [3] has as its system CC1=C(C)C(=O)c2ccccc2C1=O. The data set is described as follows: purified protein. Particulars: pH 8.0.
Data set [4] deals with COC1=C(OC)C(=O)C(C/C=C(\C)CCC=C(C)C)=C(C)C1=O. The data set is described as follows: purified protein. The conditions noted are these: pH 8.0.
For data set [5], the system named is CC1=CC(=O)c2ccccc2C1=O. As to the kind of experiment: purified protein.
Data set [6] has as its system COC1=C(OC)C(=O)C(CC=C(C)C)=C(C)C1=O. The data set is described as follows: purified protein. Particulars: pH 8.0.
Where [7] appears, read: co-substrate 100 μM F420H2, 200 mM Tris-HCl pH 8.0, 0.01% Triton X-100.

Ddn, sequence (P9WP15 whole entry): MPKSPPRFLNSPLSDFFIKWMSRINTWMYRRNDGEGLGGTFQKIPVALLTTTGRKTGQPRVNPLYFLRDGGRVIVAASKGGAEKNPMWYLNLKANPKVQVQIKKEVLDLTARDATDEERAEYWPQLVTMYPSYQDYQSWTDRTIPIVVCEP

For `O=C1C=CC(=O)c2ccccc21` [1,4-naphthoquinone], the Michaelis-Menten constant (Km) (in general, the concentration of substrate that gives half-maximal velocity) in data set [1] (setting [7]) was found to be 2.23 ± 1.19 µM.
Turning to `O=[N+]([O-])c1cn2c(n1)OC[C@@H](OCc1ccc(OC(F)(F)F)cc1)C2` [PA-824], the Michaelis constant (Km) in data set [1] is 28.6 ± 3.55 µM.
(Mycobacterium tuberculosis H37Rv): the Km is 12.35 ± 2.65 µM in data set [2]; 2.21 ± 0.98 µM in data set [3]; 3.14 ± 0.97 µM in data set [4]; 2.09 ± 0.91 µM in data set [5]; 3.44 ± 1.27 µM in data set [5] (pH 8.0); 10.12 ± 2.23 µM in data set [6]. Also, the specificity constant (kcat/Km) (usually the second-order rate constant that governs catalysis at low substrate concentration) in data set [2] is 1670 M⁻¹ s⁻¹; in data set [3] it was 40500 M⁻¹ s⁻¹; in data set [4], 28800 M⁻¹ s⁻¹; in data set [5], 255000 M⁻¹ s⁻¹; in data set [5] (pH 8.0), 86000 M⁻¹ s⁻¹; in data set [6] it was 3500 M⁻¹ s⁻¹.
For `CC1=CC(=O)c2c(O)cccc2C1=O` [Plumbagin], in data set [1] (setting [7]), the Km came out at 2.17 ± 2.74 µM.

(Values after article PMC3567243 (Molecular Microbiology, 2012).)
